Laboratory results from PMC9482650, “Quantitative fragmentomics allow affinity mapping of interactomes” (Nature Communications, 2022).
Blank lines part the entries; values can stand above or below the binder they belong to.

Key:
Test in all cases: holdup assay
Design in all cases: key: below the threshold = too weak to quantify, mostly under pKd 3.1 to 4
AHNAK1, Q09666 = molecular target: AHNAK1, Q09666
APBA3_1, O96018 = molecular target: T1, APBA3_1, O96018
T1 sequence (O96018 389-490, limits assumed, looked up): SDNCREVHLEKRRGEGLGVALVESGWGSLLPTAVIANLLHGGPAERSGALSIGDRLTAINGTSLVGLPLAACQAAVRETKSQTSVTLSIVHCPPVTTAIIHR

CARD11, Q9BXL7 = molecular target: T2, CARD11, Q9BXL7
T2 sequence (Q9BXL7 662-765, limits assumed, looked up): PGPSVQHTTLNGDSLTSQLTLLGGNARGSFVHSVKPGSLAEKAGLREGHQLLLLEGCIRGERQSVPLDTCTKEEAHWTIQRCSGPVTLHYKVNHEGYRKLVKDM

DLG1_3, Q12959 = molecular target: DLG1_3, Q12959
DLG2_2, Q15700 = molecular target: DLG2_2, Q15700
DLG4_3, P78352 = molecular target: DLG4_3, P78352
FRMPD2_2, Q68DX3 = molecular target: FRMPD2_2, Q68DX3
GORASP1, Q9BQQ3 = molecular target: GORASP1, Q9BQQ3
GORASP2, Q9H8Y8 = molecular target: GORASP2, Q9H8Y8
GRID2IP_1, A4D2P6 = molecular target: GRID2IP_1, A4D2P6
GRID2IP_2, A4D2P6 = molecular target: GRID2IP_2, A4D2P6
GRIP1_7, Q9Y3R0 = molecular target: T3, GRIP1_7, Q9Y3R0
T3 sequence (Q9Y3R0 999-1096, limits assumed, looked up): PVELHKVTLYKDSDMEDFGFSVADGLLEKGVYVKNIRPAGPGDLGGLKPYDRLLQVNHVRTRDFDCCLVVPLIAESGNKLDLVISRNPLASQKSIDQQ

GRIP2_5, Q9C0E4 = molecular target: GRIP2_5, Q9C0E4
GRIP2_7, Q9C0E4 = molecular target: GRIP2_7, Q9C0E4
HTRA2, O43464 = molecular target: HTRA2, O43464
HTRA3, P83110 = molecular target: T4, HTRA3, P83110
T4 sequence (P83110 354-453, limits assumed, looked up): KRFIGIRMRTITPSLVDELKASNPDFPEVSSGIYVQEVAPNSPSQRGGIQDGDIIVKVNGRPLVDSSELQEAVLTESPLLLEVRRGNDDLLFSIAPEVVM

LDB3, O75112 = molecular target: LDB3, O75112
LIN7C, Q9NUP9 = molecular target: T5, LIN7C, Q9NUP9
T5 sequence (Q9NUP9 88-185, limits assumed, looked up): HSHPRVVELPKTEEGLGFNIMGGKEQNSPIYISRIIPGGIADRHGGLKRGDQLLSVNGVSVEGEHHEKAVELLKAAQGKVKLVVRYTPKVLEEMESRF

MAGI2_2, Q86UL8 = molecular target: MAGI2_2, Q86UL8
MAGI2_5, Q86UL8 = molecular target: MAGI2_5, Q86UL8
MAST1, Q9Y2H9 = molecular target: MAST1, Q9Y2H9
MPDZ_12, O75970 = molecular target: T6, MPDZ_12, O75970
T6 sequence (O75970 1857-1958, limits assumed, looked up): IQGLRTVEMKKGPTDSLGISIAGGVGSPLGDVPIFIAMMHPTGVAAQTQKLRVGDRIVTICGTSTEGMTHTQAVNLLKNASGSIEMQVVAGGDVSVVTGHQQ

NHERF2_2, Q15599 = molecular target: NHERF2_2, Q15599
SCRIB_1, Q14160 = molecular target: SCRIB_1, Q14160
SNTA1, Q13424 = molecular target: T7, SNTA1, Q13424
T7 sequence (Q13424 82-180, limits assumed, looked up): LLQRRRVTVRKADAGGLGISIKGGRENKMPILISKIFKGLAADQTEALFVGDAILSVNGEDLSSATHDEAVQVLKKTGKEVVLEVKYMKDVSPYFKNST

SNTG2, Q9NY99 = molecular target: T8, SNTG2, Q9NY99
T8 sequence (Q9NY99 68-166, limits assumed, looked up): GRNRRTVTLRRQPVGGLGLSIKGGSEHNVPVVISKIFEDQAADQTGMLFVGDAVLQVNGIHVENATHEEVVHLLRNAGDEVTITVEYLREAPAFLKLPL

SYNJ2BP, P57105 = molecular target: T9, SYNJ2BP, P57105
T9 sequence (P57105 8-110, limits assumed, looked up): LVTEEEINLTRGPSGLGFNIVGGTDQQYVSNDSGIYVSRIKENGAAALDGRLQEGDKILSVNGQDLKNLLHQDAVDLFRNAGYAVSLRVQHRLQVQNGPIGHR

TIAM2, Q8IVF5 = molecular target: T10, TIAM2, Q8IVF5
T10 sequence (Q8IVF5 885-986, limits assumed, looked up): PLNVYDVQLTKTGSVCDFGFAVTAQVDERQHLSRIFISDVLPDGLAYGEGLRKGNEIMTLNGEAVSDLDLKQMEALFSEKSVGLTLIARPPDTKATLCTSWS

[1] = plain residues with an end cap or a label only (N-terminal biotin on a linker: ado-ado)
[2] = plain residues with an end cap or a label only (N-terminal biotin on a linker: ttds)

Chain of SCRIB_1, Q14160 (Q14160 718-814): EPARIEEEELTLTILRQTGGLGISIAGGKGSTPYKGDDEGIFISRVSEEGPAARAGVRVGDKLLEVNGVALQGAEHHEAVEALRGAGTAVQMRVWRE
Chain of HTRA2, O43464 (O43464 355-458): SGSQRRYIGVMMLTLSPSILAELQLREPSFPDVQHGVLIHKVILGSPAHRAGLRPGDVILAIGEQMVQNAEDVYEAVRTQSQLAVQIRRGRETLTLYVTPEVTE
Chain of DLG2_2, Q15700 (Q15700 189-283): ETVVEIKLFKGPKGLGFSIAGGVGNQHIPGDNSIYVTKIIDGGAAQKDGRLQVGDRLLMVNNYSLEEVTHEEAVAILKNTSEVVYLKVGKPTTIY
Chain of MAGI2_5, Q86UL8 (Q86UL8 915-1017): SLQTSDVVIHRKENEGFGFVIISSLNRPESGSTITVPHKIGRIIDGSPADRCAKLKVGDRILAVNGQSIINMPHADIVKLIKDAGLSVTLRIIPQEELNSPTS
Chain of GRID2IP_2, A4D2P6 (A4D2P6 272-370): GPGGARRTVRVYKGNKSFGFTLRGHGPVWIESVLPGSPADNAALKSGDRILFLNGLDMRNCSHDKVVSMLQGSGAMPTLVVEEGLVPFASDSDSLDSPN
Chain of GORASP1, Q9BQQ3 (Q9BQQ3 1-208): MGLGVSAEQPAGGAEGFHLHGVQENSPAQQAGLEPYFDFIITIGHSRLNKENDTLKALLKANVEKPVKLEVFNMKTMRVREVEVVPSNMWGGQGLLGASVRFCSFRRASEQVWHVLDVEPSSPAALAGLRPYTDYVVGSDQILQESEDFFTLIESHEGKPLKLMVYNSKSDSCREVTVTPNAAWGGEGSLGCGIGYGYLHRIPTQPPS
Chain of MAST1, Q9Y2H9 (Q9Y2H9 962-1065): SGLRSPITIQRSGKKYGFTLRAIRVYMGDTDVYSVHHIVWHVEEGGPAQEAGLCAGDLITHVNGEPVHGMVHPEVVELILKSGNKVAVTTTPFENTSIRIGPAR
Chain of LDB3, O75112 (O75112 1-94): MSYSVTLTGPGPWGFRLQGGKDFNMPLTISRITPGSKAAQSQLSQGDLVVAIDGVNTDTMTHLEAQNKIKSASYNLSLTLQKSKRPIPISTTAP
Chain of NHERF2_2, Q15599 (Q15599 142-238): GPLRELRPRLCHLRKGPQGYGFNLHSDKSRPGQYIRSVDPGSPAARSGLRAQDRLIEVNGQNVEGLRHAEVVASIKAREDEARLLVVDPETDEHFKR
Chain of DLG1_3, Q12959 (Q12959 457-571): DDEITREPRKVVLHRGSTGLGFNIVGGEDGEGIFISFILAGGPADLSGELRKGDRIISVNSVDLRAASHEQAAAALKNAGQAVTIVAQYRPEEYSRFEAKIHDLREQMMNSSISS
Chain of GRIP2_7, Q9C0E4 (Q9C0E4 934-1023): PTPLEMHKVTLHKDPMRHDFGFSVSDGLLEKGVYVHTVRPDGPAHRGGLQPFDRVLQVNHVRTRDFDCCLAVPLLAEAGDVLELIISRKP
Chain of DLG4_3, P78352 (P78352 306-403): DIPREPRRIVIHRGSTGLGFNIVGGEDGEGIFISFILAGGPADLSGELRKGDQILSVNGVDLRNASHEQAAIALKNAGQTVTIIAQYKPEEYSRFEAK
Chain of GRID2IP_1, A4D2P6 (A4D2P6 1-87): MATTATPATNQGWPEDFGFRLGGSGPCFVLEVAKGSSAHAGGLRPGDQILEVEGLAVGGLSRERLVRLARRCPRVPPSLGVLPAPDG
Chain of MAGI2_2, Q86UL8 (Q86UL8 410-522): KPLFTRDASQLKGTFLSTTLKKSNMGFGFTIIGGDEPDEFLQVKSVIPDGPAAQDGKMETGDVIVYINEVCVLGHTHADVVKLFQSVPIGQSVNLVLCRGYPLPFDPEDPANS
Chain of FRMPD2_2, Q68DX3 (Q68DX3 944-1038): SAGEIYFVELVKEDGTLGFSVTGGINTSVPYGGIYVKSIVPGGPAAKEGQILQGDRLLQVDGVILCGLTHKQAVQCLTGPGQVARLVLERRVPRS
Chain of AHNAK1, Q09666 (Q09666 4-100): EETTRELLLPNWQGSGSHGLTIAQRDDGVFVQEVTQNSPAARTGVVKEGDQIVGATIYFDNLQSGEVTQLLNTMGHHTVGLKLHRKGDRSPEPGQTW
Chain of GRIP2_5, Q9C0E4 (Q9C0E4 544-642): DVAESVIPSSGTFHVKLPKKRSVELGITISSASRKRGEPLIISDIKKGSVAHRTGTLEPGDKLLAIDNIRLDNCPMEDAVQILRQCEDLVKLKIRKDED

pKd (AHNAK1, Q09666; [1]): below the threshold
pKd (APBA3_1, O96018; [1]): below the threshold
pKd (CARD11, Q9BXL7; [1]): below the threshold
pKd (DLG1_3, Q12959; [1]): 3.69
pKd (DLG2_2, Q15700; [1]): below the threshold
pKd (DLG4_3, P78352; [1]): below the threshold
pKd (FRMPD2_2, Q68DX3; [1]): below the threshold
pKd (GORASP1, Q9BQQ3; [1]): 4.23
pKd (GORASP2, Q9H8Y8; [1]): 4.46
pKd (GRID2IP_1, A4D2P6; [1]): below the threshold
pKd (GRID2IP_2, A4D2P6; [1]): below the threshold
pKd (GRIP1_7, Q9Y3R0; [1]): 3.49
pKd (GRIP2_5, Q9C0E4; [1]): 3.55
pKd (GRIP2_7, Q9C0E4; [1]): 3.82
pKd (HTRA2, O43464; [1]): below the threshold
pKd (HTRA3, P83110; [1]): 3.58
pKd (LDB3, O75112; [1]): below the threshold
pKd (LIN7C, Q9NUP9; [1]): 4.08
pKd (MAGI2_2, Q86UL8; [1]): 3.51
pKd (MAGI2_5, Q86UL8; [1]): below the threshold
pKd (MAST1, Q9Y2H9; [1]): below the threshold
pKd (MPDZ_12, O75970; [1]): 3.55
pKd (NHERF2_2, Q15599; [1]): below the threshold
pKd (SCRIB_1, Q14160; [1]): below the threshold
pKd (SNTA1, Q13424; [1]): below the threshold
pKd (SNTG2, Q9NY99; [1]): below the threshold
pKd (SYNJ2BP, P57105; [1]): 3.7
pKd (TIAM2, Q8IVF5; [1]): below the threshold
B1: EPHA7, Q15375 (peptide)
chain: LHLHGTGIQV

pKd (AHNAK1, Q09666; [2]): 3.33
pKd (APBA3_1, O96018; [2]): below the threshold
pKd (CARD11, Q9BXL7; [2]): below the threshold
pKd (DLG1_3, Q12959; [2]): 4.56
pKd (DLG2_2, Q15700; [2]): 3.93
pKd (DLG4_3, P78352; [2]): 3.6
pKd (FRMPD2_2, Q68DX3; [2]): 3.76
pKd (GORASP1, Q9BQQ3; [2]): 3.93
pKd (GORASP2, Q9H8Y8; [2]): 4.55
pKd (GRID2IP_1, A4D2P6; [2]): below the threshold
pKd (GRID2IP_2, A4D2P6; [2]): 4.56
pKd (GRIP1_7, Q9Y3R0; [2]): below the threshold
pKd (GRIP2_5, Q9C0E4; [2]): 4.31
pKd (GRIP2_7, Q9C0E4; [2]): 3.48
pKd (HTRA2, O43464; [2]): 3.91
pKd (HTRA3, P83110; [2]): 3.43
pKd (LDB3, O75112; [2]): below the threshold
pKd (LIN7C, Q9NUP9; [2]): 3.41
pKd (MAGI2_2, Q86UL8; [2]): 4.14
pKd (MAGI2_5, Q86UL8; [2]): 4.63
pKd (MAST1, Q9Y2H9; [2]): 4
pKd (MPDZ_12, O75970; [2]): 3.34
pKd (NHERF2_2, Q15599; [2]): 4.5
pKd (SCRIB_1, Q14160; [2]): 5.54
pKd (SNTA1, Q13424; [2]): 3.88
pKd (SNTG2, Q9NY99; [2]): 3.75
pKd (SYNJ2BP, P57105; [2]): 4.72
pKd (TIAM2, Q8IVF5; [2]): 3.3
B2: ASIC3, Q9UHC3 (peptide)
chain: HRTCYLVTQL

pKd (AHNAK1, Q09666; [2]): below the threshold
pKd (APBA3_1, O96018; [2]): below the threshold
pKd (CARD11, Q9BXL7; [2]): below the threshold
pKd (DLG1_3, Q12959; [2]): below the threshold
pKd (DLG2_2, Q15700; [2]): below the threshold
pKd (DLG4_3, P78352; [2]): below the threshold
pKd (FRMPD2_2, Q68DX3; [2]): 4.01
pKd (GORASP1, Q9BQQ3; [2]): below the threshold
pKd (GORASP2, Q9H8Y8; [2]): below the threshold
pKd (GRID2IP_1, A4D2P6; [2]): below the threshold
pKd (GRID2IP_2, A4D2P6; [2]): below the threshold
pKd (GRIP1_7, Q9Y3R0; [2]): below the threshold
pKd (GRIP2_5, Q9C0E4; [2]): below the threshold
pKd (GRIP2_7, Q9C0E4; [2]): below the threshold
pKd (HTRA2, O43464; [2]): below the threshold
pKd (HTRA3, P83110; [2]): below the threshold
pKd (LDB3, O75112; [2]): below the threshold
pKd (LIN7C, Q9NUP9; [2]): below the threshold
pKd (MAGI2_2, Q86UL8; [2]): below the threshold
pKd (MAGI2_5, Q86UL8; [2]): 3.62
pKd (MAST1, Q9Y2H9; [2]): below the threshold
pKd (MPDZ_12, O75970; [2]): below the threshold
pKd (NHERF2_2, Q15599; [2]): below the threshold
pKd (SCRIB_1, Q14160; [2]): 5.18
pKd (SNTA1, Q13424; [2]): below the threshold
pKd (SNTG2, Q9NY99; [2]): below the threshold
pKd (SYNJ2BP, P57105; [2]): 4.32
pKd (TIAM2, Q8IVF5; [2]): below the threshold
B3: SLC16A1, P53985 (peptide)
chain: GGPKEEESPV
